Patent publication US9850293B2, “Targeting trastuzumab-resistant HER2+ breast cancer with a HER3-targeting nanoparticle” (priority 2014, dated 2017)
“Also recorded” adds a separate entry of the source.

How the values were obtained:
[1] = test system: MDA-MB-231 (HER2−); assay: Targeted toxicity, cell survival by MTT assay; type: cell-based, human; conditions: 0.5 μM with respect to Dox; HerPBK10 0.1 μM; day 3
Description: FIG. 7 illustrates targeted toxicity. […] Cell titer was determined by metabolic (i.e. MTT) assay. FIG. 7 upper panel illustrates the effect of HerDox on MDA-MB-231 (HER2−) and MDA-MB-435 (HER2+) cell survival. Relative surviving cell numbers are represented as a % of corresponding untreated cells. […] Relative survival (as % of untreated cells) is shown for Day 3 of treatment.
N=3. […] Bar, about 4 μm. […] (E) compares HerDox and Dox on off-target tissue. […] Green fluorescence in nuclei indicates apoptosis (positive TUNEL stain).
By three days, HerDox reduced HER2+ cell numbers by over 75% whereas HER2− cell survival was unaffected (FIG. 7). […] These findings emphasize the importance of targeting by showing that the untargeted drug affects nontarget (i.e. HER2−) cells. […] To test receptor targeting, the inventors used free heregulin ligand (Her or eHRG) as a competitive inhibitor. […] As a final in vitro challenge, the inventors tested whether HerDox induces toxicity specifically to HER2+ cells in a mixed culture of HER2+ and HER2− breast cancer cells. To do this, the inventors produced a HER2− cell line tagged with green fluorescent protein (GFP) for cell identification in the mixed culture (FIG. 9-A). […] Altogether, these findings indicate that HerDox has the capacity to preferentially target toxicity to HER2+ cells. […] In serum-containing media, no such loss from HerDox is detectable. […] Co-migration of HerPBK10 bands further verified that the conjugates remained intact in the cell media.

[2] = test system: SKBR3 parental cells; assay: Tumor cell killing in culture; type: cell-based, human
Description: (§1) FIG. 21 depicts graph that show the results of the administration of HerDox on various cells. […] N=3. *=p<0.05 compared to parental. […] N=3.
(§2) N=3. *, p<0.05 compared to parental. […] N=3. […] Parental and resistant cell lines were treated with HerDox−/+HER3 blocking peptide (ErbB3 human; Prospec), and tested for cell survival 48 hours later. […] Treatments were compared to mock (saline)-treatment. […] N=3. *, p<0.05 compared to parental. […] N=3.
Parental cell lines were pre-treated with 0.5 mg/mL Tz for 24 hours before testing these cells for surface HER3 levels. […] Parental cell lines were pre-treated with 0.5 mg/mL Tz for 24 hours before testing these cells for HerPBK10 binding. […] SKBR3 Parental cells were treated with Tz at indicated concentrations (see upper X-axes) 4 and 24 hours before HerDox treatment and assayed for survival at 48-72 h after treatment. N=3. […] SK-474 Parental cells were treated with Tz at indicated concentrations (see upper X-axes) 4 and 24 hours before HerDox treatment and assayed for survival at 48-72 h after treatment. N=3. […] MDA-MB-435 non-resistant cells were treated with Tz at indicated concentrations (see upper X-axes) 4 and 24 hours before HerDox treatment and assayed for survival at 48-72 h after treatment. […] N=3. […] Tz-resistant cells were treated with Tz at indicated concentrations (see upper X-axes) 4 and 24 hours before HerDox treatment and assayed for survival at 48-72 h after treatment. N=3.
(§3) Each therapeutic was administered at concentration ranges previously established for eliciting therapeutic efficacy.
Previous studies have shown that HER3 is transcriptionally and translationally elevated as soon as 4 hours after HER2 inhibition, either by lapatinib or gene silencing. […]

[3] = test system: SKBR3 trastuzumab-resistant cells; assay: Tumor cell killing in culture; type: cell-based, human; conditions: 48-72 h after treatment
Description: as §1, §2, §3
Each therapeutic was administered at concentration ranges previously established or known in the art for eliciting therapeutic efficacy.

[4] = test system: HER2+ tumors (MDA-MB-435); assay: In vivo tumor toxicity (tumor growth); design: species or system mouse; conditions: 0.004 mg/kg with respect to Dox, daily tail vein injections for 7 days
[5] = HerDox stability in serum-containing media; type: in vitro ADME; conditions: 10% fetal bovine serum media, 37° C.
Description: FIG. 6 (B) mimics extended exposure of HerDox to cells in culture medium. HerDox immobilized on Ni-NTA beads were incubated with bovine serum in DMEM for the indicated times at 37° C. before each sample was pelleted. […] Relative Dox release or retention in serum is expressed as normalized to control (corresponding sample lacking serum). N=3 per time point.
The inventors tested the stability of HerDox over 12 days under different storage temperatures: 40° C., room temperature, or 37° C. […] The inventors also examined HerDox stability in serum-containing media at 37° C. […] Dox retention in the conjugate was also assessed by eluting the conjugate from the beads at each time point.

[6] = test system: U251 human glioma cells; assay: Toxicity to glioma cells (cell count); type: cell-based; conditions: four days
Description: Significant differences were determined by 2-tailed tests.
Cells were trypsinized and counted on the last day.

[7] = Particle size (cryoEM, dynamic light scattering); type: physicochemical; conditions: round particles
Description: (A) depicts a graphic of HerDox formed by non-covalent, serum-stable self-assembly, showing HerPBK10 with functional domains delineated, and electrophilic binding with Dox-intercalated ds-oligo. (B) depicts a CryoEM image of HerDox particles. (C) is a HPLC chromatogram of HerDox showing elution profile of Dox absorbance. […] (D) illustrates the protection of ds-oligo from serum nuclease digestion by HerPBK10. The ds-oligo was incubated for 20 min in 100% mouse serum (Abcam, Cambridge, Mass., USA) before PAGE and EtBr staining to visualize the DNA. (E) illustrates that HerDox remains stable in blood. […] N=3. *, p<0.05, compared to respective retentates.
FIG. 33 illustrates the formation of certain corroles. […] Table summarizes salient features of the three corroles.
In some embodiments, the corrole comprises a metallic chemical element. In some of these embodiments, the metal is a transition metal. In some embodiments, the metal is Iron (Fe), Manganese (Mn), or Gallium (Ga). In other embodiments, the corrole is non-metallated. Metallated and non-metallated corroles bind in protein pockets with negligible dissociation. […] Corrole assembly with HerPBK10 yields 25-35 corroles/protein, resulting in 10-20 nm round particles (FIG. 33-B) that withstand high-speed ultrafiltration.

B1: HerDox: non-covalent complex of HerPBK10, double-stranded oligonucleotide and intercalated Dox (Unit A+Unit B+Unit C) (conjugate)
chain: SHLVKCAEKEKTFCVNGGECFMVKDLSNPSRYLCKCQPGFTGARCTENVPMKVQNQEKAEELYQKMRRAAMYEEGPPPSYESVVSAAPVAAALGSPFDAPLDPPFVPPRYLRPTGGRNSIRYSELAPLFDTTRVYLVDNKSTDVASLNYQNDHSNFLTTVIQNNDYSPGEASTQTINLDDRSHWGGDLKTILHTNMPNVNEFMFTNKFKARVMVSRLPTKDNQVELKYEWVEFTLPEGNYSETMTIDLMNNAIVEHYLKVGRQNGVLESDIGVKFDTRNFRLGFDPVTGLVMPGVYTNEAFHPDIILLPGCGVDFTHSRLSNLLGIRKRQPFQEGFRITYDDLEGGNIPALLDVDAYQASLKDDTEQGGGGAGGSNSSGSGAEENSNAAAAAMQPVEDMNDHAIRGDTFATRAEEKRAEAEAAAEAAAPAAQPEVEKPQKKPVIKPLTEDSKKRSYNLISNDSTFTQYRSWYLAYNYGDPQTGIRSWTLLCTPDVTCGSEQVYWSLPDMMQDPVTFRSTRQISNFPVVGAELLPVHSKSFYNDQAVYSQLIRQFTSLTHVFNRFPENQILARPPAPTITTVSENVPALTDHGTLPLRNSIGGVQRVTITDARRRTCPYVYKALGIVSPRVLSSRTFKKKKKKKKKK
modifications: left off: small tags and cut ends
effect on HER2− cell survival [1]: unaffected
response of parental SKBR3 cells ([2]; 48-72 h after treatment): improved cell killing compared to trastuzumab; also recorded: improved cell killing compared to Tz
cell death ([2]; parental SKBR3, 48-72 h after treatment): 50%
further augmentation of HerDox toxicity by trastuzumab pre-treatment ([2]; parental SKBR3, Tz 4 or 24 hours before HerDox, highest doses tested): 40-50%
cell death [3]: > 80%
effect on tumor growth [4]: essentially prevented tumor growth
Dox release from conjugate in serum [5]: no significant release of Dox
Dox retention by conjugate in serum ([5]; each time point): completely retained
toxicity relative to the equivalent concentration of Dox ([6]; 0.5 μM or 1 μM): 8-10 times
factor less HerDox eliciting the same toxicity as Dox [6]: 10 ×
particle diameter [7]: 10-50 nm
